# According to the DeepSol protein solubility set:
# Assay: soluble on expression in E. coli; label from the status in PepcDB or PDB records
row,Sequence,soluble on expression in E. coli
1,MSIQNISFLGAGSIAEAIIGGLLHANVVKGEQITVSNRSNETRLQELHKKYGVKGTHNKKELLTDANILFLAMKPKDVAEALTPFKEYINNNVLIISLLAGVSTDSIRKLLQKDVPIIRAMPNTSAAILKSATAISPSKHATAEHIRTATSLFETIGLVSVVEEEDMHAVTALSGSGPAYIYYVVEAMEEAAKKIGLKEDVAKSLILQTMIGAAEMLKASDKHPSILRKEITSPGGTTEAGIEVLQEHKFQQALISCITQATKRSHNLGKTLEQLTKEKLEHHHHHH,soluble
2,MGSDKIHHHHHHMSKEASFEIQLPLFAGPFDLLLFFIERDELDIYDIPISKITNDFLEYIHRLEKMNVDIASEFILVAATLMRIKAKTLLPRPDIDPQGNEIDPREELVSHLLEYKKYKSVIAEFSELEETSLKREKRGNIAKELKLLSEVSNVETELQDIDLYKLLKVFEKVIVRWKEEKTKPVHHVVQYPYSIELQKEYIINKVSRGQRISFTEIINDIPVKMAVIYNFLSILELLALQKIQLHLGEGFNNFWIAQYDGEHAAVNEYANDIE,not soluble
3,MAHHHHHHMCLSTCLLYLKQIREDSQYVIISRIDHKTCYKCISFCNLKYFVVDMIYKNEELYTDLEGIEKLLEEYKEKICCVMSATSVYAPRNSDDIIKIAHICKKYNTPHIINNAFGLQCTYICKEIQKCFESQGRVDFVVQSCDKNFLVPVNGGIIFSSNREQMKLLKKSYPGRTPVNAYLDLFITLLEMGKDKIMNLRKERVDNFNWLKEKIQLLCLKYNLELIKTSKNFISMAINLNHMYTHCNTDNPKVINMLGSMLFYRNVTGHRVICSPLLNRNYLLKKAREKYMNMLENKKGNDAMMITSNESNEENVKRDLSKKEADIYDNMYSNGFDEIKSVENDMLQNKSNIIKAYEKQIEEEFDKLNEPNTIVIGNHKFKNFGSSYNSYPISYIAFSCVVGIERPELENFVSKLDNAIDYFIKFFKKKKEEELK,not soluble
4,GPGSMSPRTSERILALGVRRLRIRSSSTASSSCNGVVEFSTCGGAGGPSYRPLAAMAMIANIQAVAFTDSRRSVFQNKKTLPSPHGRNITPDAAETKGRALFSDSNSECFPADLDPPSASQLDRILPSLNQLRDEIPSSEYVEELVRRQGVSTDLWSNGEKNNSADDDDE,not soluble
5,MGSDKIHHHHHHMNRLIGEKMNDVLSKVTDKEYLKQIEDVIKFHGHLSGGAFIGIQMYNIAKKVLDIKDTDRVYANCETRNCMPDAFQVLGNCTTGNKRLSIKDYDIMAVTVNKIIPENEVGTGVRIVFDHKKAEKYPALYNWFMNIKKVPHEEVISDLIDAGDSIYSWKSVEIHVSEKKPKFSAVCGLCGESFIKKGTDDENICPNCAEKSAE,not soluble
6,KLVFLHGLGQDKTAWNDVIAALPHYDCLALDLFDEGKMPENFTTLVEQVATELKGIEEDFVLIGLSLGAMLALALSDYTFPHIKGFIVSGAQHDLKRSFLYKLQLLGLQLLPKSFFKKQGVKKDSFLAFSKSLSTLDLRETIRQIDIPALILCGQKDKPNLLPARKIAELIPNARLSVIKKGGHLLNTKMPIVFAKEITDFLK,not soluble
7,HDFASWVSGDSMEPKYHNGSVTLIRETGFDYDGAVYAVVCNSQTYIKRVYLEAEGLRLKYKDIFISYDEDPRVVRIIIGNFIPL,not soluble
8,MQFYAALFDFPCVPEISGPQPGNDEKSWQRDFLALTNARGTFDPWDTQTCQPCTLEGIVSRNHDAFSVADFSHNVFKYVRKNHVKTTVHWKRHWQRARMAHEFVYGEQS,not soluble
9,MVLFVDFLLEWLEMMRTRVRETTYASYNSGIRQSIIPYFMDKKLTLTDIEENPKYLQDFYQHELSKGLSPNSVLRRHANIRKALQHAFHLGLIKSNPADRIERPKKQLEHHHHHH,not soluble
10,MASETENIKYEESFIKNTRGMKLFTCKWVPAKQEPKALVFICHGYAMECSITMNSTARRLVKAGFAVYGIDYEGHGKSDGLSAYVPNFDHLVDDVSTHYTSICEKEENKGKMRFLLGESMGGAVLLLLHRKKPQFWDGAVLVAPMCKIAEEMKPSPLVISILAKLSGVIPSWKIIPGQDIIETAFKQPEIRKQVRENPYCYKGRPRLKTAYELLRVSTDLEKRLNEVSLPFIVLHGEDDKVTDKAVSRQLYEVASSSDKTFKLYPGMWHGLLYGETPENIETVFADIIGWLDKKVADESGGFESELKRKNDGIPLKG,soluble
11,MGSDKIHHHHHHMKQIGIIGCGWFGLPLAQALKQLGHKVIGTKRSIEGCEQLASLGITACPLDLNDDIFYNEAFANNTFANNINELLECQVLVINIPPGLRKKAGKAESRYLEQLSNLVHFIGPRGYQKLVFISTTGVYPAGDDAELPLSEADAKAHNDASEILLNAEALFAPMDNSCILRFAGLVGPNRHPGRFFAGKTGISGANVAVNLVHLDDCIGAVIKVINADKTAPVYNIVAPEHPSRGEFYPLATTHLGLVAPVFNQEVMPTKVISGALICQQLGFIYQYPDPLKMLYAC,not soluble
12,MSLKLLFFDTETTGVKPGSICQLSYILVDTSTKPQKTIGKNIFFTVDEMEPEAERIHGFSLEKLYELSEGMYFEDLYADFINDFLEADFIIGHNVQFDIKFLKHELLGLGEFFEPNNVFCTMKYYKDICKILRPTGDYKNPKLEEVIKHLNITDSEISETANKYFQGSGNYHDARFDTAATYLTVINGIKKGLIPRNYFTKLLEAEGHHHHHH,soluble
13,LKELHILTRDGKINQDTRRKLKQVYHLYQFIEPLMADVLEKKGAMTLADHGAGKSYLGFILYDLFLKEKAAGHVYGVETRQELVDKSRELAERLGFERMGFLNLTVEQSITSTALPEQVDIITALHACNTATDDAIRFALAKDAQYIVLVPCCQAEVASVLRQKKNETFGKTPLSELWRHPIHTRE,not soluble
14,GHMQTQGLAKDAWEIPRESLRLEVKLGQGCFGEVWMGTWNGTTRVAIKTLKPGTMSPEAFLQEAQVMKKLRHEKLVQLYAVVSEEPIYIVTEYMSKGCLLDFLKGEMGKYLRLPQLVDMAAQIASGMAYVERMNYVHRDLRAANILVGENLVCKVADFGLARLIEDNEYTARQGAKFPIKWTAPEAALYGRFTIKSDVWSFGILLTELTTKGRVPYPGMVNREVLDQVERGYRMPCPPECPESLHDLMCQCWRKDPEERPTFEYLQAFLEDYFTSTEPQYQPGENL,soluble
15,MGSDKIHHHHHHMSDTITFWGVRGSIACPFPGHMAYGGNTSCVALGLGGQTVILDAGTGIRALGASAALRGVSRLALLFSHVHRDHIEGFPFFAPAHDRAVRLDIFAGPIEGASIRQLLDNLMSRPMFPLSLDQLRAQKVFHDLPAATAFTLFERIKVRTAALNHPGGATAYRFEHGGRVVCYVTDTEHRPGQPDAGLLELIAGADYVLYDSTYTDREFAAHRGWGHSTWEEGVRLCRQAGARHLVIFHHDPDHDDAAMAAIETAARAAWGGTLVAREGMTIALDSGVVTQAGR,not soluble
16,MVNPQAGVVVGYWHNWCGGAGYKGGVAPCVSLAQVNPQYNVVDISFMKVYGATGSIPTFKLDPAVGLSEAQFIDQIGELNRQGRAVLIALGGADAHIELRKGQEHDLANEIIRLVEKYGFDGLDIDLEQAAVTAADNQIVIPAALRIVKDHYRKQQKNFLITMAPEFPYLTTGGKYVPYINALEGYYDWINPQFYNQGGDGIYIEGIGWIAQNNDSLKQEFIYHISDALVNGTNGFTKIPHDKLVFGIPTNIDAAATGYVSDPNALFAAFEQLKNQGQPLRGLMTWSVNWDMGKNAAGQAYNESFIKAYGPFIHGQDITPPEPENGKPIFSGLSNTRVKLGGTFNAMDGVSAYDEEDKDLTQQIQVTGDVNTNQIGLYPLTYKVTDSDNNTTEQVRTVEVYNTKPELSGVSNTTIILATPFDAMAGVSATDAEDGNLTPNIRVEGEVDSNRVGQYQLTYSVSDSAGEQTRAVRLVTVQEQGAVCENLWSASKIYLGGDTVNYAGKIWLAGWWTQGEQPDLAGEWGVWKSKGDSDCDSGLPPVITPNFTVSGLASSYILNQGQVSINFNVNTNQAMELTANLTQEQRILASTTATINGNGAMVLQAESLEAGAYQVVISAKDKNLTQSYNVSLVQGDDGSEPVEYPAYVAGNQYQAGNIVTNAGGVYQCRPWPNSGWCSGSAPYYAPGTGSAWQDAWTKHLEHHHHHH,soluble
17,MSLAEITDRDTALFESGIKLGALYHQFVGSPVNLSTAGSLEAAIRDSISLQPCVQSITVAIDREMVRGRINDFGYCELEGRMLGVEAVIRYGTAVVHVGMRYDAEMDYPMMSVQQIEQIGQIRQIEQDKQTEQIRQIRQTEVGEGHHHHHH,soluble
18,MMQFEVKDLINKIKKDGLEEAERASNDIILKAKREAEEIVARAEEAARVLKAKSEKEANDYKCHALEASRQAIRDLIIGVEKNLKSLFENALKDNVTEVLSDNNFLAELIIKITDSWAKGEKLVIQLNESDFSSLEQILRLKLGNKLKEGMELRPFRGISKGFKIQKKNIGLHYDFSAETIADILFDYLNPRFKEVIKVV,not soluble
19,MVTITLYMNNNIEYISKIKKGEETSFRHFVNSYSKDLFYYAQCFVRSKETAEEVVSDVFLDVWRHREEIDEIKNIKAWLLTLTHNKAISYLRKAENSSEIASWEEIDDFQIIGNLQTPDEEMISKEEIAQINSLIQTLPPKCKVVFALAKIERLPYKEIADMLNISVKTINVHVAKALEIISNGLKK,not soluble
20,MKDGEAATGQAASRPKRADARRNEKNLLDAAAAVFVRSGVEAPVRDIAAEAGVGTATIYRHFPTRADLIIGVYRHQVEACAEAGPALLASSPTPYAALAGWIDLFVDFLVTKHGLAAVLQSDSAGFETLHAYFLDRLVPVCTDLLAAATDSGEIDTDVPPLALMRGVGNLCIGAETPNPSYDARQLVRILIAGLRAAD,not soluble
21,MSPKSKSTNKTYTIVIKLGTSSICDEKTHEPLISNLSLIVETVVKLRKLGHNVVLVSSGGIAMGLRRLDLPKRPSKLSAVQAIAAVGQGRLISLWDTLFTQLRQPIAQVLITRNDIAERSQYVNAANTISELLHFGVVPIVNENDTLSVQEIRFGDNDTLSAITAGMINADYLFLLTDVDCLYTDNPRTNPDAKPILKIHDTSMVNANVSTPGSGVGTGGMKTKLIAADLGTSSGVNVIICRGSKPSSIFDIIRQESSDNKNESVELPLHTHFVAKKQGRIRDRHFWLLHGLKSHGSLEIDRGAFEAITRTNRAGLLPVGVTKVHGHFSAHQAVTVIYNGEEIGRALVNYSSTEIDLIKGKRSKEIASILGYNETEYVAYRDYLVVHGLNSHHDSQVSSDEH,soluble
22,MGSDKIHHHHHHMSINSREVLAEKVKNAVNNQPVTDMHTHLFSPNFGEILLWDIDELLTYHYLVAEVMRWTDVSIEAFWAMSKREQADLIWEELFIKRSPVSEACRGVLTCLQGLGLDPATRDLQVYREYFAKKTSEEQVDTVLQLANVSDVVMTNDPFDDNERISWLEGKQPDSRFHAALRLDPLLNEYEQTKHRLRDWGYKVNDEWNEGSIQEVKRFLTDWIERMDPVYMAVSLPPTFSFPEESNRGRIIRDCLLPVAEKHNIPFAMMIGVKKRVHPALGDAGDFVGKASMDGVEHLLREYPNNKFLVTMLSRENQHELVVLARKFSNLMIFGCWWFMNNPEIINEMTRMRMEMLGTSFIPQHSDARVLEQLIYKWHHSKSIIAEVLIDKYDDILQAGWEVTEEEIKRDVADLFSRNFWRFVGRNDHVTSVKVEQQT,not soluble
23,MPSLFKTMAFQLKTERLELSMWEESDSVWLSKLIGERGVDIPAVDSVRNRLIEMRKKADENGISLLTIRRRDEGDFIGYCGLIIGRSTLEEPEIAYELFRSAHGKGYATEAASVVLDAAIATGRQRLWSTVGAWNIASLRVLEKIGFKRHHSTWDDERGEIVWNVRDL,not soluble
